Assay results: the supplement of paper PMC9876800

Tested on: peptide library, one residue held at a place counted from the S/T acceptor
Experiment: relative phosphorylation of the sub-library (ratio to the mean residue at this position); higher = residue favoured
In short: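 Purified recombinant kinases, either human or orthologue constructs, were incubated in 384-well plates with biotinylated degenerate peptide sub-libraries. Each sub-library fixed one residue at one position around a central Ser/Thr. Peptides at 50 μM and 50 μM ATP spiked with γ-32P-ATP were used for 90 min under kinase-specific conditions, and spots on streptavidin membranes were phosphorimaged and quantified by densitometry. Relative sub-library phosphorylation is expressed as a ratio to the mean residue at that position.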

Chain of PDK1, construct: Full length, human (Q15118 whole entry, looked up): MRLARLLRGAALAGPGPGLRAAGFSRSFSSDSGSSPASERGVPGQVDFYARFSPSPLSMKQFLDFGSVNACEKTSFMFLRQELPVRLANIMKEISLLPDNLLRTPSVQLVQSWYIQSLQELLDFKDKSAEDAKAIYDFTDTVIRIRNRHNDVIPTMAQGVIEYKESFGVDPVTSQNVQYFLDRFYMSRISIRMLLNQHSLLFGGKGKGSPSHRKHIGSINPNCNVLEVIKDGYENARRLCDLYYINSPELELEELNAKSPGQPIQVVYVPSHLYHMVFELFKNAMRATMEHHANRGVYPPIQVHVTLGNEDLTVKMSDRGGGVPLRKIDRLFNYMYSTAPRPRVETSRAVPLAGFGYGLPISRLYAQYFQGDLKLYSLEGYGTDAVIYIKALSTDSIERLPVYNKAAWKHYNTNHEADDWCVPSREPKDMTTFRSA
Chain of MYO3A, construct: aa1-308, human (Q8NEV4 1-308, looked up): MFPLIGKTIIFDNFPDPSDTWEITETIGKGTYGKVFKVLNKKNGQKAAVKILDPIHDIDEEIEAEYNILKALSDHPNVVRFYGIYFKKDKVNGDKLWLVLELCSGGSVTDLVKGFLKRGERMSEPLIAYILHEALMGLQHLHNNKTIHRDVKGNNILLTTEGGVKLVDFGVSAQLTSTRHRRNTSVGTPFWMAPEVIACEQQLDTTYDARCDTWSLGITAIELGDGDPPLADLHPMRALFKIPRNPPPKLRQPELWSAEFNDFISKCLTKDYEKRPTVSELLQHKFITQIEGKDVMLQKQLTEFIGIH
Chain of PAK4, construct: aa295-end, human (O96013 295-591, looked up): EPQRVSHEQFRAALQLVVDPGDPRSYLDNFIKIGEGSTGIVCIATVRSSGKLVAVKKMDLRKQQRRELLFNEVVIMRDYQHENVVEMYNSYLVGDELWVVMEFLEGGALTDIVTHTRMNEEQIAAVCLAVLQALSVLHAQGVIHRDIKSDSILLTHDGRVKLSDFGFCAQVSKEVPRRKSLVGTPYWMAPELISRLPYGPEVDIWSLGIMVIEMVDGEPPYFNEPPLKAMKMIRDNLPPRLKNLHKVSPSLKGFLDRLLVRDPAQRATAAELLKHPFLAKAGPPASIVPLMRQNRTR
Chain of MARK4, construct: Full length, human (Q96L34 whole entry, looked up): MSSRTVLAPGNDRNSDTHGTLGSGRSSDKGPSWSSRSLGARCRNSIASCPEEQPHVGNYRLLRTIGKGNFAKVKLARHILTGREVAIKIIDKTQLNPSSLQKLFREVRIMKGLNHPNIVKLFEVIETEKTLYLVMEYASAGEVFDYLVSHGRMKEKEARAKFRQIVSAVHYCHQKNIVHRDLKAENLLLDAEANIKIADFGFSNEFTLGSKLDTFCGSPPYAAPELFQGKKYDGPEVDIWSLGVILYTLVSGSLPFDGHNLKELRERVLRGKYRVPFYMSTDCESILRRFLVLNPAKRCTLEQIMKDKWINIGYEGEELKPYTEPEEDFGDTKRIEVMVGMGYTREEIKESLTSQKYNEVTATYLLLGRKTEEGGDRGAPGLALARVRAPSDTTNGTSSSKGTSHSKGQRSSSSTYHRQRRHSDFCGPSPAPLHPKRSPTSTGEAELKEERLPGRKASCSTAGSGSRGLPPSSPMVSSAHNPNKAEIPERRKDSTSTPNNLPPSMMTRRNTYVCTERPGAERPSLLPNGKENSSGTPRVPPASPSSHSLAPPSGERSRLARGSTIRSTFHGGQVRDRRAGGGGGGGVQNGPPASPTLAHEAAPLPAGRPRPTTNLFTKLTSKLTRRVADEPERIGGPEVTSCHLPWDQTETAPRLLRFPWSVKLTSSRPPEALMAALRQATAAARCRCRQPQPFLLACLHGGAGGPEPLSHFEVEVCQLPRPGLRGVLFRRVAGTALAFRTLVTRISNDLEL

MARK4, construct: Full length, human (from UniProt Q96L34)
relative phosphorylation
Conditions | at +1 | at +2 | at +3 | at +4 | at -1 | at -2 | at -3 | at -4 | at -5
A fixed | 0.923 | 1 | 0.855 | 0.686 | 1.2 | 1.82 | 0.932 | 1.32 | 1.32
D fixed | 0.605 | 0.8 | 1.94 | 0.629 | 0.694 | 0.498 | 0.552 | 0.801 | 0.875
E fixed | 0.864 | 1.08 | 0.886 | 0.529 | 0.582 | 0.447 | 0.522 | 0.844 | 0.676
F fixed | 0.652 | 0.854 | 0.919 | 0.788 | 0.472 | 1.08 | 0.91 | 0.875 | 1.03
G fixed | 0.706 | 0.562 | 0.687 | 0.611 | 2.59 | 1.62 | 0.951 | 1.32 | 1.15
H fixed | 0.956 | 1.01 | 1.45 | 0.652 | 0.868 | 1.26 | 1.25 | 1.11 | 0.977
I fixed | 0.933 | 0.829 | 0.653 | 2.53 | 0.464 | 0.599 | 0.572 | 0.61 | 0.818
K fixed | 0.83 | 0.707 | 0.627 | 0.517 | 1.64 | 0.884 | 1.65 | 1.34 | 1.33
L fixed | 1.11 | 1.14 | 0.857 | 4.02 | 0.668 | 0.479 | 0.692 | 0.726 | 1.27
M fixed | 1.89 | 0.973 | 0.879 | 1.41 | 0.756 | 0.62 | 0.881 | 1.04 | 0.969
N fixed | 1.17 | 1.02 | 2.69 | 0.601 | 0.982 | 0.718 | 0.695 | 0.913 | 0.753
P fixed | 0.372 | 0.785 | 0.344 | 0.587 | 1.37 | 0.709 | 1.08 | 1.1 | 0.893
Q fixed | 1.74 | 1.11 | 0.894 | 0.576 | 1.3 | 0.6 | 0.751 | 0.775 | 0.81
R fixed | 1.12 | 0.826 | 0.592 | 0.41 | 1.36 | 0.97 | 2.57 | 1.34 | 1.2
V fixed | 1.29 | 0.872 | 0.634 | 1.27 | 0.721 | 0.682 | 0.634 | 0.711 | 0.972
W fixed | 0.9 | 2.44 | 0.961 | 0.58 | 0.581 | 2.41 | 1.42 | 1.17 | 1.13
Y fixed | 0.94 | 0.991 | 1.13 | 0.6 | 0.758 | 1.6 | 0.938 | 1 | 0.819
pThr fixed | 0.858 | 0.855 | 0.4 | 0.541 | 0.428 | 0.577 | 0.542 | 0.786 | 0.706
pTyr fixed | 0.58 | 0.648 | 0.716 | 0.471 | 0.618 | 0.611 | 0.636 | 0.802 | 0.681

MYO3A, construct: aa1-308, human (from UniProt Q8NEV4)
relative phosphorylation
Conditions | at +1 | at +2 | at +3 | at +4 | at -1 | at -2 | at -3 | at -4 | at -5
A fixed | 0.412 | 0.7 | 0.734 | 0.973 | 0.971 | 0.873 | 1.07 | 0.953 | 1.14
D fixed | 0.178 | 0.35 | 0.257 | 0.506 | 1.19 | 0.602 | 0.814 | 1.22 | 1.14
E fixed | 0.151 | 0.271 | 0.229 | 0.425 | 0.697 | 0.382 | 0.772 | 1.19 | 1.08
F fixed | 0.71 | 0.638 | 0.858 | 0.517 | 0.847 | 1.45 | 0.821 | 0.951 | 0.819
G fixed | 0.559 | 0.815 | 0.815 | 1.34 | 1.81 | 0.691 | 1.05 | 1.12 | 1.12
H fixed | 0.634 | 1.3 | 1.02 | 0.986 | 1.07 | 1.59 | 1.31 | 1.26 | 1.11
I fixed | 1.65 | 0.572 | 0.801 | 0.72 | 0.345 | 0.684 | 0.789 | 0.801 | 0.823
K fixed | 1.49 | 3.03 | 2.71 | 2.63 | 1.12 | 0.754 | 1.2 | 0.982 | 1.13
L fixed | 2.17 | 0.728 | 1.08 | 0.771 | 0.976 | 0.498 | 0.683 | 0.74 | 0.629
M fixed | 2.55 | 0.933 | 0.883 | 0.67 | 1.22 | 0.941 | 0.903 | 0.807 | 0.81
N fixed | 0.61 | 0.737 | 0.835 | 0.853 | 1.29 | 1.21 | 1.16 | 1.19 | 1.06
P fixed | 0.313 | 0.857 | 0.766 | 0.981 | 0.568 | 0.633 | 0.959 | 0.899 | 1.09
Q fixed | 0.737 | 0.726 | 0.753 | 0.908 | 1.01 | 0.798 | 1.08 | 1.06 | 1.05
R fixed | 1.95 | 2.8 | 2.77 | 2.32 | 1.26 | 1.2 | 1.16 | 0.835 | 1.18
V fixed | 0.882 | 0.688 | 0.775 | 0.752 | 0.523 | 0.579 | 0.759 | 0.89 | 0.927
W fixed | 1.01 | 0.908 | 0.756 | 1.01 | 0.886 | 1.49 | 1.26 | 1.11 | 0.83
Y fixed | 0.985 | 0.947 | 0.956 | 0.643 | 1.21 | 2.62 | 1.21 | 0.993 | 1.08
pThr fixed | 0.523 | 0.418 | 0.71 | 0.348 | 0.573 | 0.699 | 0.939 | 1.19 | 1.06
pTyr fixed | 0.325 | 0.301 | 0.649 | 0.403 | 1.65 | 0.771 | 0.993 | 1.24 | 1.24

PAK4, construct: aa295-end, human (from UniProt O96013)
relative phosphorylation
Conditions | at +1 | at +2 | at +3 | at +4 | at -1 | at -2 | at -3 | at -4 | at -5
A fixed | 0.553 | 4.9 | 0.88 | 0.922 | 0.732 | 0.279 | 0.735 | 1.12 | 1.3
D fixed | 0.199 | 0.382 | 0.663 | 0.928 | 0.373 | 0.145 | 0.295 | 0.611 | 0.77
E fixed | 0.194 | 0.23 | 0.814 | 0.754 | 0.273 | 0.136 | 0.265 | 0.603 | 0.58
F fixed | 1.3 | 0.849 | 1.81 | 0.823 | 1.06 | 0.445 | 0.54 | 0.844 | 0.852
G fixed | 0.327 | 0.715 | 0.996 | 1.13 | 0.534 | 0.244 | 0.739 | 1.35 | 1.29
H fixed | 0.9 | 0.663 | 1.12 | 1.23 | 1.34 | 0.76 | 0.801 | 1.17 | 1.09
I fixed | 1.79 | 1.14 | 1.36 | 0.8 | 0.563 | 0.284 | 0.415 | 0.655 | 0.727
K fixed | 0.621 | 0.267 | 0.544 | 0.817 | 1.45 | 0.725 | 3.15 | 1.51 | 1.53
L fixed | 1.38 | 0.673 | 1.35 | 0.788 | 1.18 | 0.244 | 0.49 | 0.74 | 0.71
M fixed | 1.96 | 0.588 | 1.1 | 0.877 | 1.38 | 0.334 | 0.599 | 0.913 | 0.714
N fixed | 0.366 | 0.542 | 0.542 | 0.91 | 0.967 | 0.287 | 0.77 | 0.873 | 1
P fixed | 0.215 | 0.667 | 0.797 | 2.16 | 0.251 | 0.634 | 0.684 | 0.868 | 1.03
Q fixed | 0.694 | 0.433 | 0.682 | 1.02 | 1.06 | 0.641 | 0.96 | 0.902 | 0.897
R fixed | 0.964 | 0.297 | 0.615 | 0.983 | 2.76 | 10 | 4.61 | 1.98 | 1.81
V fixed | 1.47 | 2.1 | 1.07 | 0.761 | 0.579 | 0.282 | 0.413 | 0.66 | 0.75
W fixed | 2.49 | 0.806 | 1.45 | 1.21 | 1.19 | 0.417 | 0.876 | 1.27 | 0.987
Y fixed | 1.57 | 1.75 | 1.2 | 0.894 | 1.3 | 1.1 | 0.651 | 0.941 | 0.961
pThr fixed | 0.339 | 0.403 | 0.705 | 1.45 | 0.233 | 0.218 | 0.398 | 0.688 | 0.662
pTyr fixed | 0.514 | 0.767 | 1.34 | 1.19 | 0.261 | 0.232 | 0.402 | 0.579 | 0.65

PDK1, construct: Full length, human (from UniProt Q15118)
relative phosphorylation
Conditions | at +1 | at +2 | at +3 | at +4 | at -1 | at -2 | at -3 | at -4 | at -5
A fixed | 0.64 | 0.794 | 0.777 | 0.904 | 1.25 | 0.94 | 0.972 | 0.989 | 0.951
D fixed | 0.63 | 1.03 | 1.5 | 1.01 | 1.58 | 0.752 | 0.799 | 0.88 | 0.943
E fixed | 0.568 | 0.888 | 1.1 | 0.856 | 0.681 | 0.7 | 0.677 | 0.818 | 0.881
F fixed | 1.18 | 1.15 | 1.64 | 1.17 | 1.04 | 1.26 | 1.28 | 1.18 | 1.24
G fixed | 0.641 | 1.71 | 1.08 | 1.05 | 1.11 | 1.42 | 0.928 | 1.14 | 1.12
H fixed | 0.804 | 1.09 | 0.87 | 1.06 | 1.25 | 1.26 | 1.08 | 0.957 | 1.1
I fixed | 2.06 | 0.767 | 0.932 | 1 | 0.793 | 0.852 | 1.1 | 0.962 | 0.945
K fixed | 0.624 | 0.808 | 0.622 | 0.794 | 0.655 | 0.704 | 0.77 | 0.832 | 0.824
L fixed | 2.3 | 0.889 | 0.883 | 0.884 | 0.924 | 1.02 | 1.07 | 0.982 | 1.05
M fixed | 1.34 | 0.989 | 1.02 | 1 | 0.976 | 1.08 | 1.12 | 1.19 | 1.1
N fixed | 0.625 | 0.935 | 0.809 | 1.02 | 1.29 | 0.787 | 0.867 | 0.878 | 0.981
P fixed | 0.607 | 0.902 | 1.1 | 1.08 | 0.864 | 0.799 | 0.912 | 1.02 | 0.722
Q fixed | 0.727 | 1.04 | 0.803 | 0.884 | 0.801 | 0.869 | 0.852 | 0.883 | 0.679
R fixed | 0.728 | 1.11 | 0.897 | 0.967 | 0.751 | 0.986 | 0.851 | 0.988 | 0.95
V fixed | 1.28 | 0.813 | 0.948 | 0.926 | 0.823 | 0.83 | 0.94 | 0.831 | 0.917
W fixed | 1.25 | 1.08 | 1.03 | 1.38 | 1.21 | 1.73 | 1.78 | 1.47 | 1.6
Y fixed | 1.18 | 1.15 | 1.64 | 1.17 | 1.04 | 1.26 | 1.28 | 1.18 | 1.24
pThr fixed | 0.538 | 0.662 | 0.863 | 0.876 | 0.572 | 0.524 | 0.666 | 0.846 | 0.933
pTyr fixed | 0.723 | 0.951 | 0.689 | 0.919 | 0.694 | 0.892 | 0.885 | 1.2 | 1.05
